Target: the molecule itself
Experiment: non-reducing PAGE of protein isolated from CHO cells

B1: active domain of GDF-6 fused to a FLAG tag (SEQ ID NO: 25) (ligand)
chain: MDYKDDDDKENLYFQGTAFASRHGKRHGKKSRLRCSKKPLHVNFKELGWDDWIIAPLEYEAYHCEGVCDFPLRSHLEPTNHAIIQTLMNSMDPGSTPPSCCVPTKLTPISILYIDAGNNVVYKQYEDMVVESCGCR
notes: It was secreted by CHO cells; the Western blot was run under reducing conditions; also called active fragment of GDF-6; active fragment
  binding result: binds

From patent publication US20120208753A1 (published 2012)
